These results are taken from US20100323969 (published 2010).

For orientation: IC50 means the concentration needed to halve the response being measured. A higher IC50 goes with weaker potency.

Ends that are not written are not given here. * marks the point of attachment. Galloyl = O=C(c1cc(O)c(O)c(O)c1)*

The chains are these.
T1: human P-selectin IgG-Fc chimera (human, UniProt P16109)
T1 chain: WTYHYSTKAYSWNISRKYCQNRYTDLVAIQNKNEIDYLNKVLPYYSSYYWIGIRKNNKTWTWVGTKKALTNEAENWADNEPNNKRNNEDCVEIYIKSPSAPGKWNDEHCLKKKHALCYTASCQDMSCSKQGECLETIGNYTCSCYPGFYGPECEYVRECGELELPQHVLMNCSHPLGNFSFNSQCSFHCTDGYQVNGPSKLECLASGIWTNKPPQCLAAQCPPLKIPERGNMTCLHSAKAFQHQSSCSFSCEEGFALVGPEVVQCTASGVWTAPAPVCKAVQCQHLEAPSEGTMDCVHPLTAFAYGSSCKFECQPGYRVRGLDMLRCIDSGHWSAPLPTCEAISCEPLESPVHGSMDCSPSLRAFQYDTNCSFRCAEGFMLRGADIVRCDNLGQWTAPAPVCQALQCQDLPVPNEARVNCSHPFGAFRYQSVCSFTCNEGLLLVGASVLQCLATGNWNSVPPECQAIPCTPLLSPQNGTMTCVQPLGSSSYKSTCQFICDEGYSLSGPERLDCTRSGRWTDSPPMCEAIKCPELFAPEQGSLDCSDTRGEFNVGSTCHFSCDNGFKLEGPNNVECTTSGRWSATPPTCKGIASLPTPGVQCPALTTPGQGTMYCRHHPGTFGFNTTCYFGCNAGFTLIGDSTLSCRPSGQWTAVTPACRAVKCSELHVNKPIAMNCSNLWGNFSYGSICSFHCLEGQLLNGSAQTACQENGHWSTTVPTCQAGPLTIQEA

B1: Compound 12 (GA-WVDV) (peptide)
chain: Galloyl-WVDV
B2: A29 (peptide)
chain: EWVDV
B3: Compound 13 (GA-EWVDV) (peptide)
chain: Galloyl-EWVDV
B4: A130 (peptide)
chain: KWVDV
B5: A129 (peptide)
chain: DWVDV
B6: A131 (peptide)
chain: AWVDV
B7: TM11 (peptide)
chain: CDVEWVDVSSLEWDLPC

One experiment has as its target T1, human P-selectin IgG-Fc chimera. As to the kind of experiment: competition ELISA.
As for B1, the IC50 stood at 0.0371 µM.

For another experiment the target is unchanged. As to the kind of experiment: competition ELISA. The source holds these as a separate data set. For orientation: An ELISA detects its analyte on a solid surface through an enzyme-linked reagent.
In turn, B2 registered an IC50 of 8 µM.
In the case of B3, the IC50 amounted to 0.031 µM.
The molecule B4 yielded a 50% inhibitory concentration (IC50) of 28 µM. This IC50 is about 900-fold higher than that of the molecule before.
B5 yielded an IC50 of 16 µM.
B6 came in with an IC50 of 27 µM.
B1 had a half-maximal inhibitory concentration (IC50) of 0.037 µM. This IC50 is about 730-fold lower than that of the molecule before.
B7 yielded an IC50 of 2 µM.
